Values belong to the binder of their own block, whether it stands above or below them.
Legend:
[1] = target: the molecule itself; test: mbSUS split-ubiquitin interaction assay, full length AFL1 with itself
Description: Mating-based Split-Ubiquitin System (mbSUS) assays were performed as previously described using vectors and yeast strains obtained from the Arabidopsis Biological Resource Center. Full length AFL1 as well as putative interactors were expressed in yeast strains THY.AP4 and THY.AP5, respectively, by recombinational in vivo cloning and plated on SC-Leu-Met or SC-Trp-Ura-Met (SC/+AHL) plates for selection. The interaction was tested by X-gal agarose overlay assay.

ER-body protein NAI2 = target: T1, ER-body protein NAI2 (Arabidopsis, UniProt Q9LSB4 25-772, limits assumed); test: yeast two hybrid library screen (AFL1 N-terminus)
T1 construct: also called AT3G15950
T1 sequence: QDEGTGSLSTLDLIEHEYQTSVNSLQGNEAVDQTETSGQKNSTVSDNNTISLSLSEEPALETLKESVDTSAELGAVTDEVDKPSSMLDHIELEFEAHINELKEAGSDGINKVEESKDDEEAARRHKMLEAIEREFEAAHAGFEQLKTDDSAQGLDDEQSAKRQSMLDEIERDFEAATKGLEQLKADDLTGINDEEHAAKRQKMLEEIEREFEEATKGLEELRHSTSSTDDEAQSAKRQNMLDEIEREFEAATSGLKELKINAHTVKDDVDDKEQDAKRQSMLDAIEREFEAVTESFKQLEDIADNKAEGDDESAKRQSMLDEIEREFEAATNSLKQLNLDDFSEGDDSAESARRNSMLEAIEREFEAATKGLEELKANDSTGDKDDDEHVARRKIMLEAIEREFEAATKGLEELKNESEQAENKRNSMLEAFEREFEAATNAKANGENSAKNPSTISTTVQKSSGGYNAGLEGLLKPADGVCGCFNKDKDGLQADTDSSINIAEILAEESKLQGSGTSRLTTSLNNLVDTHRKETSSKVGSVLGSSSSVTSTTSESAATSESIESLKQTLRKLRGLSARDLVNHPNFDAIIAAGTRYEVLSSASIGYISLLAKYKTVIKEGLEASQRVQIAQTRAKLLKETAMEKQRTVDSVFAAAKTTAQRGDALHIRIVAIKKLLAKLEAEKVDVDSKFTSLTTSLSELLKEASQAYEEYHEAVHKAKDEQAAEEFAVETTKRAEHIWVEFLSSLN
Description: A yeast two hybrid library was prepared using mRNA from seedlings exposed to −1.2 MPa low water potential stress for 96 h. The library was prepared using the Cloneminer II cDNA construction (Invitrogen) according to the manufacturer's instructions. Yeast two hybrid screening was performed using the ProQuest Two-hybrid system (Invitrogen) following manufacturer's instructions with an N-terminal fragment of AFL1 (amino acids 1 to 208) as bait. The bait fragment was cloned into destination vector pDEST23 and co-transformed into MaV203 along with clones from the cDNA library using LiAc X transformation. […] Colonies that grew on the selective media were re-streaked and subjected to β-galactosidase filter assay to confirm interaction. Out of approximately 8×10⁵ colony forming units screened, clones of PDI5, NAI2, and TSA1 were detected repeatedly. Most of these clones were C-terminal truncations. Full length cDNA clones of PDI5, NAI2 and TSA1 were obtained (using the cloning procedures described above) and confirmed to interact with the AFL1 bait construct in β-galactosidase filter assays.

B1: At14a-like1 (AFL1), full length (other)
chain: MALSKDLMLKCSEDMMSAYKSACEEHPKLKSFDASLQQRTNKMIDSLTVEDKNGSSSPHDAHMELSKHLVEVTQGVADFITEIEDDVWDNQALKYLVLAYFENTKKTLEIFKTIENCVENAEMGQLLIREALAEFEKESAEKDVGGKKKKYEKTLEDLKSFKEMGDPFDGKVLTTQFERIKKQQESLLEEVSETRKKIQDEISNLEKKTLITNVVFGAAFAIVAVASIALIATGVGAAAGFGALAAPLLAAGWAGVYTTLDKKKDALNKQLEGLKKVEEIEESVEKGIKTNEEATETVSILVDGLEDRIKNMLKLVDNAIDHEDNEAATRIVLTQISKKVEKLTKKITEVGESVEDHSKLIAKARLQVLQKINR
notes: Full-length AFL1; In mbSUS it was a split-ubiquitin fusion expressed in yeast; In BiFC it was a fusion to a YFP half (YFPN or YFPC, the latter MYC-tagged); This entry also stands for native AFL1 in seedling extracts (47 kDa band; co-purified with YFP-AFL1); also called AT3G28270; Full Length AFL1
binding result [1]: binds

binding result (ER-body protein NAI2): binds
B2: AFL1 N-terminal fragment (amino acids 1 to 208) (other)
chain: MALSKDLMLKCSEDMMSAYKSACEEHPKLKSFDASLQQRTNKMIDSLTVEDKNGSSSPHDAHMELSKHLVEVTQGVADFITEIEDDVWDNQALKYLVLAYFENTKKTLEIFKTIENCVENAEMGQLLIREALAEFEKESAEKDVGGKKKKYEKTLEDLKSFKEMGDPFDGKVLTTQFERIKKQQESLLEEVSETRKKIQDEISNLEKK
notes: Yeast two hybrid bait in a ProQuest destination vector (printed as pDEST23); also called AFL1 N-terminus; N-terminal domain of AFL1

— US20160090605A1 (ACADEMIA SINICA, published 2016)
